In the test the target is anthrax protective antigen, wild type PA83 (Bacillus anthracis) (UniProt P13423).
Sequence of anthrax protective antigen, wild type PA83 (Bacillus anthracis) (P13423 30-764): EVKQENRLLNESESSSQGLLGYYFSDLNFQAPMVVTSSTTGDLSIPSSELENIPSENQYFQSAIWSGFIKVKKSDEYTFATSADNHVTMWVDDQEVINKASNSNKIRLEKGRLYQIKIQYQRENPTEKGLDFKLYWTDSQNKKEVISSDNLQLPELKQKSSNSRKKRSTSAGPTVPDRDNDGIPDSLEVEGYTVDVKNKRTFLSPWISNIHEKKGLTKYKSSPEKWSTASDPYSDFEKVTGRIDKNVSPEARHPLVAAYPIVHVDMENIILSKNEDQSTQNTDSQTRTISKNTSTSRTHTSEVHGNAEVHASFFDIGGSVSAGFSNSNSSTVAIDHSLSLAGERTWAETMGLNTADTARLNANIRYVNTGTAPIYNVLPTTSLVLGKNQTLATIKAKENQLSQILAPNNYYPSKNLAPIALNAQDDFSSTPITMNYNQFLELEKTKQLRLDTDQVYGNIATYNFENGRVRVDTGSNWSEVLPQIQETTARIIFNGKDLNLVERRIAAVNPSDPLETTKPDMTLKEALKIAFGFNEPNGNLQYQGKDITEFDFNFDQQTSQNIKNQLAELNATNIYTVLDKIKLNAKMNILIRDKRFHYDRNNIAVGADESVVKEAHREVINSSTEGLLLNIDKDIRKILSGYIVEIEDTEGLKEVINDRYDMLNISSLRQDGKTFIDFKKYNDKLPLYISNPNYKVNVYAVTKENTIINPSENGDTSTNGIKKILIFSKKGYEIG

“neutralizing anti-PA mouse monoclonal antibody 14B7” displayed an IC50 (read off the curve) of 0.01 µM.
